# T1: CCR4 (Homo sapiens, UniProt P51679)
# T1 construct: host or cells: CHO-K1
# T1 sequence (P51679 1-360): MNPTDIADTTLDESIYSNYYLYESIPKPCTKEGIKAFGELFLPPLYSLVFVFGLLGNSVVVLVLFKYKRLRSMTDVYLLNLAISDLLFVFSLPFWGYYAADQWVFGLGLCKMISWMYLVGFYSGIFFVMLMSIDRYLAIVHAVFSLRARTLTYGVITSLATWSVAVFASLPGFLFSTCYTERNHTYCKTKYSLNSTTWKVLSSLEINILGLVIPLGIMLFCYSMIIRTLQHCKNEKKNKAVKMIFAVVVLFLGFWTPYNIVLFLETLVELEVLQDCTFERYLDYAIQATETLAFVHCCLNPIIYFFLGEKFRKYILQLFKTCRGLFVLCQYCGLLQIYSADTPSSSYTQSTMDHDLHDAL
# T2: EphA3 (Homo sapiens, UniProt P29320)
# T2 construct: So far all selections have been performed with soluble EphA3 ecto domain
# T2 sequence (P29320 21-541 limits assumed): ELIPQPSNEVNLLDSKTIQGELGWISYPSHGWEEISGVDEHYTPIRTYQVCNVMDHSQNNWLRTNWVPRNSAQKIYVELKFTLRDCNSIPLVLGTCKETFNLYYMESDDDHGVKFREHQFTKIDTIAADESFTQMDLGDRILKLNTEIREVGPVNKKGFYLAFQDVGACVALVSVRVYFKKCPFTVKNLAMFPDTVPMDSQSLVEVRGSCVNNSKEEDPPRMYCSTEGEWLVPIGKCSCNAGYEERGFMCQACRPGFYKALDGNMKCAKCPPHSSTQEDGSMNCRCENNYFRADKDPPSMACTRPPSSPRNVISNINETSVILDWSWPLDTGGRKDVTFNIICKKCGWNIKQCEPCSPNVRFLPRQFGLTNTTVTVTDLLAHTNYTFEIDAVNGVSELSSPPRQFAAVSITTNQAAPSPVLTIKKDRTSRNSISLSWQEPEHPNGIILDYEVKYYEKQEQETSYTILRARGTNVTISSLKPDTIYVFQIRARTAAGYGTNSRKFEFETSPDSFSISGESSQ
# B1: CCL22: the natural ligand of CCR4; CCL22 Discoverx (Cat no #92-1006) (protein, UniProt O00626 25-93, looked up)
# C-C motif chemokine 22: GPYGANMEDSVCCRDYVRYRLPLRVVKHFYWTSDSCPRPGVVLLTFRDKEICADPRVPWVKMILNKLSQ
# Legend:
# [1] = biological target: T1, CCR4; experiment: PathHunter eXpress CCR4 CHO-K1 β-Arrestin GPCR Assay, agonist format; assay type: cell-based
# Procedure: (§1) The aim of the present experiment was to analyze if if these peptides are functional using a Discoverx Assay, the Beta-Arrestin recruitment assay, to identify agonism or antagonism in the selected peptides.
# (§2) Standard protocols used: • PathHunter® eXpress CCR4 CHO-K1 β-Arrestin GPCR Assay. 100 dp (1×96-well)
# (§3) The experiment was carried using the manufacturer instructions.
# The concentration was increased to test for response at high concentration.
# [2] = biological target: T1, CCR4; experiment: PathHunter eXpress CCR4 CHO-K1 β-Arrestin GPCR Assay, antagonist format with CCL22; assay type: cell-based
# Procedure: as §1, §2, §3
# We therefore used the assay in an antagonist format, using 10 nM CCL22.
# We repeated this experiment lowering the concentration of CCL22 from 10 nM to 1 nM to show a full inhibition curve.
# [3] = biological target: T2, EphA3; experiment: EphA3 FP competition assay with 67-10-05 as labelled tracer; assay type: binding; details: tracer 67-10-05
# [4] = biological target: T3, MT1-MMP hemopexin domain (Homo sapiens, UniProt P50281); experiment: MMP-14 FP competition binding between peptide families
# T3 construct: Human MMP-14 PEX protein at 71.1 μM monomer
# Procedure: FIG. 6 illustrates an analysis of MT-MMP binding ligands. A: MMP-14 FP direct binding in cell-based selections; 1 nM tracer, 60 min data. 17-98-Sar6-k(FI)-and-17-99-Sar6-k(FI)-bind with Kds of 354 nM and 501 nM respectively. B: competition binding with several combinations of peptides, both fluorescein-labelled or native, from soluble and cell based selections.
# FIG. 7 illustrates the competition profile between peptide ligands isolated in this example.
# • Human MMP-14 PEX protein at 71.1 μM monomer (previously 77.1 μM) (T-017-011), stored in fridge (4/7/14) • Peptides as described in Results section
# Method: • Prepare assay buffer: 20 mM HEPES, 150 mM NaCl, 1 mM CaCl2), 0.1% Tween20 (pH 7.6). Buffer was filtered before use to remove precipitate. • Method according to Example 3 with tracer at 1 nM and MMP-14 PEX at concentrations detailed in the graphs • 60 min data analysed • Results are shown in FIG. 6.
molecule,measurement,setting,value
"ACQLTCLTPARQPGCA [24-14-00-N001, bicyclic peptide ligand, TATA scaffold, from CCR4 cell-based selection]",Raw Data,[1]; 0.006 nM,28548
same,Raw Data,[1]; 0.02 nM,25603
same,Raw Data,[1]; 0.06 nM,30232
same,Raw Data,[1]; 0.17 nM,28531
same,Raw Data,[1]; 0.51 nM,32968
same,Raw Data,[1]; 1.5 nM,30785
same,Raw Data,[1]; 4.6 nM,27510
same,Raw Data,[1]; 13.9 nM,24521
same,Raw Data,[1]; 41.7 nM,24892
same,Raw Data,[1]; 125 nM,21899
same,Raw Data,[1]; 375 nM,20214
same,Raw Data,"[1]; high concentration, 0.001 uM",10817
same,Raw Data,"[1]; high concentration, 0.003 uM",11788
same,Raw Data,"[1]; high concentration, 0.008 uM",12385
same,Raw Data,"[1]; high concentration, 0.023 uM",12607
same,Raw Data,"[1]; high concentration, 0.1 uM",12143
same,Raw Data,"[1]; high concentration, 0.2 uM",13151
same,Raw Data,"[1]; high concentration, 0.6 uM",12839
same,Raw Data,"[1]; high concentration, 1.9 uM",12725
same,Raw Data,"[1]; high concentration, 5.6 uM",12720
same,Raw Data,"[1]; high concentration, 16.7 uM",12239
same,Raw Data,"[1]; high concentration, 50 uM",13314
same,antagonist for CCR4,[2]; 1 nM CCL22,antagonist
same,Raw Data,"[2]; 1 nM CCL22, 0.001 uM",240299
same,Raw Data,"[2]; 1 nM CCL22, 0.003 uM",222439
same,Raw Data,"[2]; 1 nM CCL22, 0.008 uM",212749
same,Raw Data,"[2]; 1 nM CCL22, 0.023 uM",212035
same,Raw Data,"[2]; 1 nM CCL22, 0.1 uM",215827
same,Raw Data,"[2]; 1 nM CCL22, 0.2 uM",201484
same,Raw Data,"[2]; 1 nM CCL22, 0.6 uM",200525
same,Raw Data,"[2]; 1 nM CCL22, 1.9 uM",198268
same,Raw Data,"[2]; 1 nM CCL22, 5.6 uM",171795
same,Raw Data,"[2]; 1 nM CCL22, 16.7 uM",116828
same,Raw Data,"[2]; 1 nM CCL22, 50 uM",102610
same,Raw Data,"[2]; 10 nM CCL22, 0.001 uM",163937
same,Raw Data,"[2]; 10 nM CCL22, 0.003 uM",138339
same,Raw Data,"[2]; 10 nM CCL22, 0.008 uM",156373
same,Raw Data,"[2]; 10 nM CCL22, 0.023 uM",159753
same,Raw Data,"[2]; 10 nM CCL22, 0.1 uM",168602
same,Raw Data,"[2]; 10 nM CCL22, 0.2 uM",151985
same,Raw Data,"[2]; 10 nM CCL22, 0.6 uM",158845
same,Raw Data,"[2]; 10 nM CCL22, 1.9 uM",143688
same,Raw Data,"[2]; 10 nM CCL22, 5.6 uM",150686
same,Raw Data,"[2]; 10 nM CCL22, 16.7 uM",132736
same,Raw Data,"[2]; 10 nM CCL22, 50 uM",138731
"CIPDPYQCVILRQPC [67-10-05-N005, EphA3 peptide ligand, 6X6 loops, from soluble selection; used as labelled tracer]",Ki,[3],5.39 nM
"CRASAGQCNPDPKLC [67-24-00-N001, EphA3 peptide from cell-based screening, 6X6 loops]",Ki (nM),[3],No binding
CQNRFPNCPINGFFC [Peptide 17-99],competition with other peptide families,[4],competes with all the other families
B1,EC50,[1],1.65 nM
same,Raw Data,[1]; 0.006 nM,37757
same,Raw Data,[1]; 0.02 nM,41715
same,Raw Data,[1]; 0.06 nM,57093
same,Raw Data,[1]; 0.17 nM,84488
same,Raw Data,[1]; 0.51 nM,111988
same,Raw Data,[1]; 1.5 nM,135687
same,Raw Data,[1]; 4.6 nM,172692
same,Raw Data,[1]; 13.9 nM,209362
same,Raw Data,[1]; 41.7 nM,230085
same,Raw Data,[1]; 125 nM,249665
same,Raw Data,[1]; 375 nM,234176
same,Raw Data,"[1]; high concentration, 0.001 uM",16366
same,Raw Data,"[1]; high concentration, 0.003 uM",23261
same,Raw Data,"[1]; high concentration, 0.008 uM",29739
same,Raw Data,"[1]; high concentration, 0.023 uM",47935
same,Raw Data,"[1]; high concentration, 0.1 uM",67642
same,Raw Data,"[1]; high concentration, 0.2 uM",88410
same,Raw Data,"[1]; high concentration, 0.6 uM",101987
same,Raw Data,"[1]; high concentration, 1.9 uM",118822
same,Raw Data,"[1]; high concentration, 5.6 uM",118686
same,Raw Data,"[1]; high concentration, 16.7 uM",130064
same,Raw Data,"[1]; high concentration, 50 uM",122799
same,Raw Data,"[2]; 1 nM CCL22, 0.001 uM",189754
same,Raw Data,"[2]; 1 nM CCL22, 0.003 uM",206356
same,Raw Data,"[2]; 1 nM CCL22, 0.008 uM",204398
same,Raw Data,"[2]; 1 nM CCL22, 0.023 uM",218834
same,Raw Data,"[2]; 1 nM CCL22, 0.1 uM",225758
same,Raw Data,"[2]; 1 nM CCL22, 0.2 uM",245828
same,Raw Data,"[2]; 1 nM CCL22, 0.6 uM",321207
same,Raw Data,"[2]; 1 nM CCL22, 1.9 uM",425613
same,Raw Data,"[2]; 1 nM CCL22, 5.6 uM",422771
same,Raw Data,"[2]; 1 nM CCL22, 16.7 uM",433500
same,Raw Data,"[2]; 1 nM CCL22, 50 uM",508067
same,Raw Data,"[2]; 10 nM CCL22, 0.001 uM",178148
same,Raw Data,"[2]; 10 nM CCL22, 0.003 uM",150444
same,Raw Data,"[2]; 10 nM CCL22, 0.008 uM",136281
same,Raw Data,"[2]; 10 nM CCL22, 0.023 uM",131693
same,Raw Data,"[2]; 10 nM CCL22, 0.1 uM",151947
same,Raw Data,"[2]; 10 nM CCL22, 0.2 uM",169306
same,Raw Data,"[2]; 10 nM CCL22, 0.6 uM",173881
same,Raw Data,"[2]; 10 nM CCL22, 1.9 uM",175875
same,Raw Data,"[2]; 10 nM CCL22, 5.6 uM",212050
same,Raw Data,"[2]; 10 nM CCL22, 16.7 uM",245795
same,Raw Data,"[2]; 10 nM CCL22, 50 uM",223579

# Reference: patent US11946041B2, “Modification of polypeptides” (BicycleRD Limited, priority 2017, dated 2024)
